The values that follow come from article PMC4691288.

This experiment deals with WXyn43, GH43 β-xylosidase from Weissella sp. strain 92 (full-length enzyme) (Weissella sp. strain 92). As to the kind of experiment: SEC.

For “WXyn43, GH43 β-xylosidase from Weissella sp. strain 92 (full-length enzyme)”, the stoichiometry N was 4.
